Data taken from publication PMC5397045, “Biochemical and molecular characterization of the isocitrate dehydrogenase with dual coenzyme specificity from the obligate methylotroph Methylobacillus Flagellatus” (PLoS ONE, 2017).
Blank lines part the entries; values can stand above or below the molecule they belong to.

What was measured:
MfIDH = biological target: T1, MfIDH (Methylobacillus flagellatus, UniProt Q1GZD1); assay: NAD(P)H formation at […] nm; assay type: biochemical; settings: read-out: % inhibition at 2 mM
T1 construct: gene Mfla_2139; native enzyme purified from M. flagellatus cells, untagged; 413 residues; homodimer (recombinant N-terminal 6xHis form said to be essentially the same)
T1 sequence (Q1GZD1 1-413): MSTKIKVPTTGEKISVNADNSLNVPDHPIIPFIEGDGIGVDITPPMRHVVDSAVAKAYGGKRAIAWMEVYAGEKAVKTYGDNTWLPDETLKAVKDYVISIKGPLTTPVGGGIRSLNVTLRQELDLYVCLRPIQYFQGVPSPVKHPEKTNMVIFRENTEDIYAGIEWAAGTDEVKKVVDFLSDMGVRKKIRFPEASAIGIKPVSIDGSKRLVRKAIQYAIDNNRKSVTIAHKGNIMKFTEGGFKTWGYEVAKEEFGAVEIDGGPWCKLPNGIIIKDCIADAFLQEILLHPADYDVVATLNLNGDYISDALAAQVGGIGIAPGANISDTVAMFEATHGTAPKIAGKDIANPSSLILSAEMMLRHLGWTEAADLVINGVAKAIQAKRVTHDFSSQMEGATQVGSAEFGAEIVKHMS

[1] = biological target: recombinant 6x-His-tagged isocitrate dehydrogenase from Methylobacillus flagellatus (Methylobacillus flagellatus ATCC51484); assay: SEC; HiLoad 10/300 Superdex 200, 0.05 M potassium phosphate buffer pH 7.0, 0.15 M NaCl, 0.01% sodium azide, 0.5 mL/min; calibrated with standards of 29-669 kDa
[2] = biological target: native isocitrate dehydrogenase from Methylobacillus flagellatus (Methylobacillus flagellatus ATCC51484); assay: native gel or EMSA; gradient non-denaturing PAGE (4-20%, w/v), protein stain and zymogram staining for NAD+- and NADP+-dependent activity; band compared with protein markers
purified protein [3] = substrate: O=C(O)CC(C(=O)O)C(O)C(=O)O; assay: purified protein; assay type: biochemical, Methylobacillus flagellatus; settings: cosubstrate NAD+ (saturating), Mn2+, 100 mM Tris-HCl pH 8.5, 42°C, pH 8.5
purified protein [4] = substrate: NC(=O)c1ccc[n+]([C@@H]2O[C@H](COP(=O)(O)OP(=O)(O)OC[C@H]3O[C@@H](n4cnc5c(N)ncnc54)[C@H](OP(=O)(O)O)[C@@H]3O)[C@@H](O)[C@H]2O)c1; assay: purified protein; assay type: biochemical, Methylobacillus flagellatus; settings: saturating DL-isocitrate, Mn2+, 100 mM Bis-Tris-HCl pH 6.0, 42°C, apparent, pH 6.0
purified protein [5] = substrate: NC(=O)c1ccc[n+]([C@@H]2O[C@H](COP(=O)(O)OP(=O)(O)OC[C@H]3O[C@@H](n4cnc5c(N)ncnc54)[C@H](O)[C@@H]3O)[C@@H](O)[C@H]2O)c1; assay: purified protein; assay type: biochemical, Methylobacillus flagellatus; settings: saturating DL-isocitrate, Mn2+, 100 mM Tris-HCl pH 8.5, 42°C, apparent, pH 8.5

inhibition at 2000 µM (MfIDH): 50%
Molecule: Nc1ncnc2c1ncn2[C@@H]1O[C@H](COP(=O)(O)OP(=O)(O)OP(=O)(O)O)[C@@H](O)[C@H]1O [ATP]

stoichiometry N [2]: 2
Molecule: native isocitrate dehydrogenase from Methylobacillus flagellatus (enzyme)

Continued, molecule first:

Molecule: recombinant 6x-His-tagged isocitrate dehydrogenase from Methylobacillus flagellatus (enzyme)
stoichiometry N [1]: 2

B1: MfIDH (Methylobacillus flagellatus KT) (protein)
chain: T1 sequence (Q1GZD1 1-413)
notes: native enzyme purified from M. flagellatus cells, untagged; 413 residues; homodimer (recombinant N-terminal 6xHis form said to be essentially the same)
Km (purified protein [3]): 9.0 µM
Km (purified protein [4]): 184 µM
kcat (purified protein [4]): 56 s⁻¹
kcat/Km (purified protein [4]): 300000 M⁻¹ s⁻¹
Km (purified protein [5]): 113 µM
kcat (purified protein [5]): 166 s⁻¹
kcat/Km (purified protein [5]): 1.5e+06 M⁻¹ s⁻¹
